US9333240B2, “Compounds for improving nutritional status, cognition and survival” (YISSUM RESEARCH DEVELOPMENT COMPANY OF THE HEBREW …, priority 2005, dated 2016)

Assays:
[1] = tested on: mice; assay: Neurological score in TAA model of hepatic encephalopathy; format: in vivo; conditions: TAA treated mice, Leptin daily for 5 days
Method: Mice were treated with TAA, then 1 mk/kg Leptin was administered daily for 5 days and neurological score was evaluated

[2] = tested on: AKT; assay: AKT phosphorylation in glucose-deprived cardiomyocytes; format: cell-based; conditions: glucose deprivation for 1, 3, 6 h
Method: Cultured cardiomyocytes exposed to glucose deprivation for 1, 3, 6 h were treated with Leptin. Stat-3 phosphorylation (A) and AKT phosphorylation (measure for cell survival and cardioroprotection) were measured by protein analysis.

[3] = tested on: AMPK; assay: Hippocampal AMPK phosphorylation by immunoblotting; format: in vivo; conditions: 40% diet restricted mice, 1 mg/kg leptin for 72 h
Method: Total hippocampal Protein was extracted using TriFast reagent. Aliquots of the clarified lysates containing […] were denatured in Laemmli sample buffer (6% SDS 30%, glycerol, 0.02% bromophenol blue, 200 mM Tris-HCl (pH 6.8), and 250 mM-mercaptoethanol, at 95° C. for 5 min. The samples were resolved by SDS-PAGE (10% acrylamide), and blotted onto nitrocellulose membrane. Non-specific binding in a Western blot analysis was prevented by immersing the membranes in blocking buffer (5% nonfat dry milk in Tris-buffer saline-Tween 20 (TBS-T)), for 2 h at room temperature. The membranes were then exposed to the indicated antibodies diluted 1:1000 for 1 h at room temperature. AMPK, phospho-AMPK and PARP were obtained from Cell Signaling. Bax, bcl-2 and actin were from Santa Cruz Biotechnology Inc. (Santa Cruz, Calif.). The blots were rinsed in TBS-T and then incubated with horseradish peroxidase-conjugated goat anti-mouse antibodies 1:10,000 for 1 h at room temperature. Antibody-antigen complexes were visualized by detecting enhanced chemiluminescence with X-ray film.
Leptin is a key hormone in the regulation of energy balance and is known to modulate AMPK activity in other systems^15,16. The manner by which leptin may interact with AMPK in modulating brain function was further investigated. Leptin was analyzed functionality under different degrees of diet restriction. […]

[4] = tested on: mice; assay: Morris Water Maze in diet-restricted mice; format: in vivo; conditions: leptin 1 mg/kg daily; data not shown
Method: The effects of leptin administration (restoration) on neural function in diet-restricted mice was investigated. Mice were assigned at random to 4 groups. The groups were kept under ad libitum or DR to 40% for 10 days and injected daily with either 1 mg/kg leptin or saline for 5 days during the second week. […] Cognitive performance improvement was also observed in the Morris Water Maze (data not shown). Then the effects on the concentrations of NE and dopamine in the hippocampus were evaluated. […] To elucidate the cellular mechanisms involved in leptin effects, proteins associated with apoptosis were determined by immunoblotting. Leptin induced up-regulation of bcl-2 while reducing Bax levels. […] The anti-apoptotic effect of leptin was further confirmed by detection of activated caspase-3 expression as ?of apoptotic cell death. Activated caspase-3 could not be detected in the hippocampi of control animals.

[5] = tested on: activated caspase-3; assay: Activated caspase-3 immunohistochemistry in hippocampal sections; format: in vivo, mice; conditions: 40% DR, leptin 1 mg/kg
Method: Mice were perfused intracardially with 4% paraformaldehyde in PBS. Their brains were removed, fixed further in the same solution. […] sections, cut on the same day, were de-waxed and hydrated through graded ethanols, cooked in 25 mM citrate buffer pH 6.0 in a pressure cooker at […] for 3 min (decloaking chamber, Biocare Medical), transferred into boiling deinoized water and left to cool down for 20 min. After 5 min treatment in 3% H2O2, slides were incubated with rabbit polyclonal activated caspase-3 antibody diluted 1:100 in CAS-Block (Zymed) for 3 h at room temperature, washed three times with Optimax (Biogenex), incubated for 30 min with anti rabbit Envision_(DAKO) and developed with DAB for 15 min.
The effects of leptin administration (restoration) on neural function in diet-restricted mice was investigated. Mice were assigned at random to 4 groups. The groups were kept under ad libitum or DR to 40% for 10 days and injected daily with either 1 mg/kg leptin or saline for 5 days during the second week. […] Then the effects on the concentrations of NE and dopamine in the hippocampus were evaluated. […] To elucidate the cellular mechanisms involved in leptin effects, proteins associated with apoptosis were determined by immunoblotting. […] Activated caspase-3 could not be detected in the hippocampi of control animals.

[6] = tested on: mice; assay: Mortality in TAA model of hepatic encephalopathy; format: in vivo; conditions: mice ad libitum or DR to 40%, with or without leptin
Method: Mice were maintained on Ad Librium or DR to 40% conditions. TAA was administered with or without leptin. Treated mortalilty rate was recorded everyday.

B1: leptin: Murine leptin provided by A. Gertler; adipokine hormone, full leptin is a 146 amino acid sequence (protein, UniProt P41160 22-167, looked up)
Leptin: VPIQKVQDDTKTLIKTIVTRINDISHTQSVSAKQRVTGLDFIPGLHPILSLSKMDQTLAVYQQVLTSLPSQNVLQIANDLENLRDLLHLLAFSKSCSLPQTSGLQKPESLDGVLEASLYSTEVVALSRLQGSLQDILQQLDVSPEC
neurological score [1]: reversed impaired neurological score | cell survival as measured by AKT phosphorylation [2]: improved the cell survival | hippocampal AMPK phosphorylation [3]: significantly reduced | cognitive performance in the Morris Water Maze [4]: improvement | activated caspase-3 immunoreactivity [5]: significantly reduced the immunoreactivity | mortality [6]: decreases mortality | mortality ([6]; listed as Leptin): decreased mortality
